Laboratory results published in patent US20190336589A1, “IMMUNIZING PEPTIDE, METHOD FOR PRODUCING IMMUNIZING PEPTIDE, PHARMACEUTICAL COMPOSITION FOR IMMUNE DISEASE CONTAINING SAME, AND METHOD FOR TREATING IMMUNE DISEASE” (OSAKA UNIVERSITY, priority 2015, published 2019).

Biological target: T1, complex of HEL peptide and MHC class II molecule (I-A^k) on 293 T cells (Mus musculus, UniProt P01910+P06343)
T1 construct: α-chain of mouse MHC class II molecule (I-A^k); β-chain of mouse MHC class II molecule (I-A^k); expressed in transfected cells; host or cells: 293T cells (pME18S vectors, co-transfected with pMX-GFP)
T1 sequence (P01910 24-256): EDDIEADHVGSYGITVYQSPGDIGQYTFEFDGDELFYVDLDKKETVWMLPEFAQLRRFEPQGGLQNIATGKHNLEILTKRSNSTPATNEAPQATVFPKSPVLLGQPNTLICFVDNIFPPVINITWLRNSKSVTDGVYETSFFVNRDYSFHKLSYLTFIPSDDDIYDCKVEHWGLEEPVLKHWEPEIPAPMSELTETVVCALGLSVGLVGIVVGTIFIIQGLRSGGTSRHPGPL
T1 sequence (P06343 28-263): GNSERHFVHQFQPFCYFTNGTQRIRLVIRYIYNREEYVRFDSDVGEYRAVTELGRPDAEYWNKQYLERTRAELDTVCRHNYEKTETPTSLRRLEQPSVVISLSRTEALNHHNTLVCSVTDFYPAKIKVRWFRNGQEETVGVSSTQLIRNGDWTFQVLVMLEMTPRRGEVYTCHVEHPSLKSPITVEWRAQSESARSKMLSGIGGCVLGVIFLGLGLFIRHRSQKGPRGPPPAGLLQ
Assay: Flow cytometry of serum IgG from HEL protein-immunized mice binding to 293 T cells expressing I-A^k pulsed with HEL peptides
Excerpt: From mouse spleen cDNA, polynucleotides encoding the α-chain and the β-chain of a mouse MHC class II molecule (I-A^k) shown below were cloned into pME18S vectors, respectively. Thus, a mouse MHC class II molecule (I-A^k) α-chain expression vector (I-A^k a expression vector) and a mouse MHC class II molecule (I-A^k) β-chain expression vector (I-A^k β expression vector) were produced. As a GFP expression vector, pMX-GFP (obtained from the Division of Cellular Therapy in the Advanced Clinical Research Center of the Institute of Medical Science, the University of Tokyo) was used.
293T cells (obtained from RIKEN BioResource Center) were used as host cells to which the above-described expression vectors were to be introduced. First, the 293 T cells were seeded in a 24-well plate at a density of 2×10^5 cells/500 μl/well. Next, the expression vectors were introduced to the 293T cells using a PEI max solution obtained by dissolving a transfection 5 reagent (PEI max, Cosmo Bio Co., Ltd.) in purified water at a concentration of 2 mg/ml. Specifically, a mixture of 2 μl of the PEI max solution and 50 μl of a serum-free medium (OPTI-MEM®, GIBCO) was added to 50 μl of a serum-free medium containing 0.26 μg of the I-A^k c expression vector, 0.26 μg of the I-A^k f expression vector, and 0.26 μg of the GFP expression vector. Then, they were mixed together, whereby a transfection reagent was prepared. Thereafter, the transfection reagent was added to each well to introduce the expression vectors to the 293 T cells. After the introduction, the 293 T cells were cultured in a DMEM medium at 37° C. for 12 hours. Next, each of HEL peptides shown in Table 3 below was added to the wells at a concentration of 20 μmol/l. The 293 T cells were cultured for another 24 hours under the above-described culture conditions, whereby the 293 T cells were pulsed with the HEL peptide. The cultured 293 T cells were collected from the wells. Thereafter, the collected 293 T cells were used in antibody detection to be described below. The HEL peptides used in the present example and the following examples were obtained from SCRUM Inc., Eurofins Genomics K.K., or GenScript. In the HEL protein, a T-cell epitope presented by the MHC class II molecule I-A^k is a peptide consisting of the amino acid sequence of SEQ ID NO: 1 (DGSTDYGILQINSR). Thus, among the HEL peptides shown in Table 3 below, HEL peptide 41-70 corresponds to the immunizing peptide.
100 μg of a HEL protein (Sigma) was mixed with a complete Freund's adjuvant (CFA, Sigma), and the resultant mixture was administered subcutaneously to mice (B10.A strain). Two weeks after the administration, whole blood was collected from each mouse, and serum was collected from the whole blood.
The serum collected from each of the HEL protein-immunized mice was diluted 100-fold with a HANKS' BALANCED SALT SOLUTION (HBSS, Sigma) to obtain a diluted serum. Next, 10 μl of the diluted serum was added to the 293 T cells obtained in the above item (1) to cause a reaction. The 293 T cells after the reaction were washed, and then stained with an APC-labeled anti-mouse IgG (H+L) antibody (code-number: 715-136-150, Jackson ImmunoResearch). Thereafter, the stained 293 T cells were analyzed by flow cytometry (FACSCalibur™, Becton Dickinson) (peptide non-added groups). As peptide added groups, the HEL peptides shown in Table 3 above were added to the diluted serums, respectively, at a concentration of 40 μmol/l. Then, the diluted serums containing the respective HEL peptides were added to the 293 T cells pulsed with the corresponding HEL peptides to cause a reaction. Except for the above, the peptide added groups were analyzed by the flow cytometry analysis in the same manner.
Peptide non-added groups were analyzed by flow cytometry in the same manner as in the above item (3), except that, instead of the HEL peptides shown in Table 3 above, the HEL peptide 41-70, the HEL peptide 48-61, and HEL peptides shown in Table 4 below were used. […]

[1] = peptide added groups: same HEL peptide added to diluted serum at 40 μmol/l, serum of HEL protein-immunized mice
[2] = peptide non-added groups, serum of HEL protein-immunized mice diluted 100-fold, I-A^k 293 T cells pulsed with 20 μmol/l peptide

Row | serum IgG binding to 293 T cells pulsed with the HEL peptide [1] | serum IgG binding to 293 T cells pulsed with the HEL peptide [2] | Sequence
1 | observed | observed | QATNRNTDGSTDYGILQINSRWWCNDGRTP (Gallus gallus domesticus) [HEL peptide 41-70]
2 | not observed | not observed | DGSTDYGILQINSR (Gallus gallus domesticus) [HEL peptide 48-61, reference compound]
